Laboratory results as given in publication PMC7026628.

How the values were obtained:
[1] = target: T1, EV71-C 3Dpol WT (Enterovirus 71 strain …, UniProt M4QLY4 1732-2193); assay: fluorescence polarization; 5 mM Mg2+; FP: 50 mM potassium glutamate pH 7.5, 50 mM arginine, 5 mM DTT, 5 mM MgCl2, 30 mM NaCl, 5% glycerol, 25 nM RNA, room temperature, at least 60 min. EC assembly:
[2] = target: T1, EV71-C 3Dpol WT; assay: crystal structure (1.8 A); five Mg2+; elongation complex; FP: 50 mM potassium glutamate pH 7.5, 50 mM arginine, 5 mM DTT, 5 mM MgCl2, 30 mM NaCl, 5% glycerol, 25 nM RNA, room temperature, at least 60 min. EC assembly:
[3] = target: T1, EV71-C 3Dpol WT; assay: crystal structure; ddCTP-soaked elongation complex; FP: 50 mM potassium glutamate pH 7.5, 50 mM arginine, 5 mM DTT, 5 mM MgCl2, 30 mM NaCl, 5% glycerol, 25 nM RNA, room temperature, at least 60 min. EC assembly:

B1: T31/P8F (structured_RNA)
RNA 1: GGGAGAUGAAAGUCUCCAGGUCUCUCGGAAA
RNA 2: UGUUCCGA
[1]
  Kd: 180 nM

B2: T31/P12 (T31/P8 after GAGA incorporation) (structured_RNA)
RNA 1: B1 RNA 1
RNA 2: UGUUCCGAGAGA
[2]
  binding result: binds

B3: T31/P12 + ddCMP (structured_RNA)
RNA 1: B1 RNA 1
RNA 2: UGUUCCGAGAGAC
modifications: 3'-terminal 2',3'-dideoxy-C on product strand
[3]
  binding result: binds
